# Measured values reported in article PMC6631453, “Set-Up and Validation of a High Throughput Screening Method for Human Monoacylglycerol Lipase (MAGL) Based on a New Red Fluorescent Probe” (Molecules, 2019).
# T1: human recombinant monoacylglycerol lipase (hMAGL) (Homo sapiens, UniProt Q99685)
# T1 construct: gene MGLL
# T1 sequence (Q99685 1-303): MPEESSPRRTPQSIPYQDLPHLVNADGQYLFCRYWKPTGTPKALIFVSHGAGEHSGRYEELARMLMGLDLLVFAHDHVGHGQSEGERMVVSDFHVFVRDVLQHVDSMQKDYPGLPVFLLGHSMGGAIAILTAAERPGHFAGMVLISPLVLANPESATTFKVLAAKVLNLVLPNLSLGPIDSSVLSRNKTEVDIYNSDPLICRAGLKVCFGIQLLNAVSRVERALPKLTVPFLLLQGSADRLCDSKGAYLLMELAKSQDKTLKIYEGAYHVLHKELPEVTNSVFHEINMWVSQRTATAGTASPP
# B1: human recombinant monoacylglycerol lipase (hMAGL) (Homo sapiens) (protein)
# chain: T1 sequence (Q99685 1-303)
# Key:
# [1] = biological target: T1, human recombinant monoacylglycerol lipase (hMAGL); assay: fluorogenic assay with substrate 1c, […] min pre-incubation; assay type: biochemical
# [2] = biological target: T1, human recombinant monoacylglycerol lipase (hMAGL); assay: fluorogenic hydrolysis at […], normalized to 1c; assay type: biochemical
# purified protein = substrate: CCCCCCCC(=O)Oc1ccc2nc3ccc(=O)cc-3oc2c1; assay: purified protein; assay type: biochemical, Homo sapiens
# [3] = substrate: CCCCCCCCCCCC(=O)Oc1ccc2nc3ccc(=O)cc-3oc2c1; assay: fluorogenic hydrolysis kinetics (Km); assay type: biochemical, Homo sapiens
# [4] = substrate: CCCCCCCC/C=C\CCCCCCCC(=O)Oc1ccc2nc3ccc(=O)cc-3oc2c1; assay: fluorogenic hydrolysis kinetics (Km); assay type: biochemical, Homo sapiens
# [5] = substrate: CCCCC(C)C(=O)Oc1ccc2nc3ccc(=O)cc-3oc2c1; assay: fluorogenic hydrolysis kinetics (Km); assay type: biochemical, Homo sapiens
# [6] = substrate: CCCCC(CC)C(=O)Oc1ccc2nc3ccc(=O)cc-3oc2c1; assay: fluorogenic hydrolysis kinetics (Km), low Vmax; assay type: biochemical, Homo sapiens
# [7] = substrate: CCCCCCC(CCCC)C(=O)Oc1ccc2nc3ccc(=O)cc-3oc2c1; assay: fluorogenic hydrolysis kinetics (Km), very low Vmax; assay type: biochemical, Homo sapiens
molecule,measurement,setting,value
O=C(Nc1cccc(-c2ccccc2)c1)OC1CCCCC1 [URB602],IC50,[1],8.1 µM
"CCCCC/C=C\C/C=C\C/C=C\C/C=C\CCCC(=O)Oc1ccc2nc3ccc(=O)cc-3oc2c1 [1g, 7-hydroxyresorufinyl arachidonate]","fluorogenic hydrolysis at 5 μM, normalized to 1c",[2],Normalized hydrolysis of different substrates by hMAGL.
B1,Km,purified protein,0.66 µM
same,Vmax,purified protein; catalytic active site near Ser122 (docking only),0.106 µmol/min/mg
same,Km,[3],0.31 µM
same,Vmax,[3],0.024 µmol/min/mg
same,Km,[4],0.42 µM
same,Vmax,[4],0.013 µmol/min/mg
same,Km,[5],1.09 µM
same,Vmax,[5],0.033 µmol/min/mg
same,Km,[6],2.8 µM
same,Vmax,[6],0.0013 µmol/min/mg
same,Km,[7],1.1 µM
same,Vmax,[7],0.00067 µmol/min/mg
